Sequences and labels used below:
B1: Pirh2 NTD + RING (residues 1–189) (domain or fragment)
chain: MAATAREDGASGQERGQRGCEHYDRGCLLKAPCCDKLYTCRLCHDNNEDHQLDRFKVKEVQCINCEKIQHAQQTCEECSTLFGEYYCDICHLFDKDKKQYHCENCGICRIGPKEDFFHCLKCNLCLAMNLQGRHKCIENVSRQNCPICLEDIHTSRVVAHVLPCGHLLHRTCYEEMLKEGYRCPLCMHS

Positions count from the first letter of the chain named. Values joined by “and” are separate entries in the source; they are usually repeats but may differ in a detail not shown here. Equal values may be shown once. Ends that are not written are not given here.

The target of the first assay is polyAla/C-degron peptide containing four Ala residues. As to the kind of experiment: ITC. Background: ITC needs no label: the signal is the heat of the interaction.
In general, Kd refers to the constant that tells how readily two partners part at equilibrium. Consider B1, for which the Kd was found to be 7.4 µM.

The target of another assay is polyAla/C-degron peptide containing five Ala residues. As to the kind of experiment: ITC.
Regarding B1, the dissociation constant Kd amounted to 2.5 µM.

In a further assay the target is T1, Pirh2 with Ile110 substituted with a negatively charged residue (human, UniProt Q96PM5 1-261).
T1 sequence (Q96PM5 whole entry, looked up) 1: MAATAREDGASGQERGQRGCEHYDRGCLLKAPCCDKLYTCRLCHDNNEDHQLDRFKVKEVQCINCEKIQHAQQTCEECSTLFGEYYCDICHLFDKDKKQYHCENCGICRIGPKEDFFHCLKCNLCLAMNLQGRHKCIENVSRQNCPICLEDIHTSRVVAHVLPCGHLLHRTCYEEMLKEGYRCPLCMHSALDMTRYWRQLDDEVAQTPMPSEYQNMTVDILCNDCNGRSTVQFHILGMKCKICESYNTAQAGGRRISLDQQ
T1 sequence (Q96PM5 whole entry, looked up) 2: T1 sequence (Q96PM5 whole entry, looked up) 1
Description: ITC.
On to YKTSAAAAAA, for which the Kd was 40 µM.

The next assay concerns the target B1. Description: ITC.
As to YKTSAAA [three-Ala peptide], the Kd is > 100 µM.

In the case of AAAAAA, the dissociation constant Kd is 0.9 µM.

For the next assay, the target named is unnamed. Description: ITC.
For the molecule B1, the Kd was 8.6 µM and 12 µM.

The target in a further assay is B1. Description: ITC. This is another data set of the same source.
Turning to YKTSATAAAA [Ala6/C-degron peptide with the threonine mutation of Ala-5], the Kd is 0.5 µM.

Take YKTSAASA: the Kd was 20 µM.

Regarding YKTSAAAPAA [Ala6/C-degron peptide with Ala-3 substituted with proline], the Kd was found to be 0.9 µM.

For the molecule YKTSAAAIAA [Ala6/C-degron peptide with Ala-3 substituted with isoleucine], the dissociation constant Kd was found to be 2.7 µM.

On to YKTSASAA, for which the equilibrium dissociation constant (Kd) stood at 3 µM.

For YKTSAAPA, the equilibrium dissociation constant (Kd) came out at 26 µM.

On to YKTSAAAA, for which the dissociation constant (Kd) is 0.8 µM.

Take YKTSTAAAAA [Ala6/C-degron peptide with the threonine mutation of Ala-6]: the dissociation constant Kd amounted to 0.5 µM.

As for YKTSAVAA, the Kd turned out to be 1.9 µM.

On to YKTSAGAA, for which the dissociation constant Kd came out at 2.3 µM.

As to YKTSAAVA, the Kd came to 13 µM.

In the case of YKTSPAAA [Ala6/C-degron peptide with Ala-4 substituted with proline], the dissociation constant Kd was 57 µM.

In the case of YKTSAAGA, the equilibrium dissociation constant (Kd) worked out at 22 µM.

In the case of YKTSAAAAAG [Ala6/C-degron peptide with Ala-1 replaced with glycine], the Kd amounted to 23 µM.

On to YKTSAAAAIA [Ala6/C-degron peptide with Ala-2 substituted with isoleucine], for which the Kd stood at 13 µM.

For the molecule YKTSAASAAA [Ala6/C-degron peptide with Ala-4 substituted with serine], the dissociation constant Kd worked out at 4.5 µM.

In the case of YKTSAAATAA [Ala6/C-degron peptide with the threonine mutation of Ala-3], the Kd was 0.7 µM.

A further assay concerns the target B1. Description: ITC. This is another data set of the same source.
As for YKTSAAAPAA [Ala6/C-degron peptide with Ala-3 substituted with proline], the dissociation constant Kd turned out to be 0.5 µM.

Regarding YKTSAAAIAA [Ala6/C-degron peptide with Ala-3 substituted with isoleucine], the Kd came out at 1.5 µM.

For the molecule YKTSAAAKAA [Ala6/C-degron peptide with Ala-3 substituted with lysine], the Kd turned out to be 2.1 µM.

YKTSAAAAIA [Ala6/C-degron peptide with Ala-2 substituted with isoleucine]: the Kd amounted to 10 µM.

Another assay has as its target T2, Pirh2 I107D (Homo sapiens).
T2 chain: T1 sequence (Q96PM5 whole entry, looked up) 1 with I107D
Description: ITC.
The molecule YKTSAAAAAA (not fully specified) registered a Kd of 9.1 µM.

Values taken from publication PMC10148881 (2023).
